Measured values from publication PMC9462685 (Science Advances, 2022).

Columns and labels:
[1] = molecular target: Sr35 (Triticum monococcum) (UniProt S5ABD6); experiment: cryo-EM structure
[2] = molecular target: Sr35 (Triticum monococcum) (UniProt S5ABD6); experiment: MST
[3] = molecular target: 6×His-tagged AvrSr35 (residues 27 to 578) (Puccinia graminis f. sp. tritici); experiment: AUC

“6×His-tagged AvrSr35 (residues 27 to 578) (natural protein)” gave a stoichiometry N [1] of 1, a Kd [2] of 7.8 µM and a stoichiometry N [3] of 2.
